According to paper PMC2191783:

Biological target: PU.1 (recombinant) (mouse, UniProt P17433 1-272)
Experiment: EMSA

Binder	binding result
c-fms -150 PU-ets wild type (dsDNA) DNA 1: GCCCAAGGAGGAGGAAGAGGAAAACAAG DNA 2: CTTGTTTTCCTCTTCCTCCTCCTTGGGC	binds
c-fms -150 mutant M1 (MT-1) (dsDNA) DNA 1: GCCCAAGTAGTAGTAAGAGTAAAACAAG DNA 2: CTTGTTTTACTCTTACTACTACTTGGGC	no binding
